The values below come from article PMC9279676, “ERK2 MAP kinase regulates SUFU binding by multisite phosphorylation of GLI1” (Life Science Alliance, 2022).

To fix the notation:
B1: GLI1_(1-232), wild type, 35S-radiolabeled [modified: [35S]-methionine label; [35S]-methionine label] [human] / GST-SUFU (fusion of GST to full-length human SUFU) [human] (parent)
chain 1: MFNSMTPPPISSYGEPCCLRPLPSQGAPSVGTEGLSGPPFCHQANLMSGPHSYGPARETNSCTEGPLFSSPRSAVKLTKKRALSISPLSDASLDLQTVIRTSPSSLVAFINSRCTSPGGSYGHLSIGTMSPSLGFPAQMNHQKGPSPSFGVQPCGPHDSARGGMIPHPQSRGPFPTCQLKSELDMLVGKCREEPLEGDMSSPNSTGIQDPLLGMLDGREDLEREEKREPESV
chain 2: MAELRPSGAPGPTAPPAPGPTAPPAFASLFPPGLHAIYGECRRLYPDQPNPLQVTAIVKYWLGGPDPLDYVSMYRNVGSPSANIPEHWHYISFGLSDLYGDNRVHEFTGTDGPSGFGFELTFRLKRETGESAPPTWPAELMQGLARYVFQSENTFCSGDHVSWHSPLDNSESRIQHMLLTEDPQMQPVQTPFGVVTFLQIVGVCTEELHSAQQWNGQGILELLRTVPIAGGPWLITDMRRGETIFEIDPHLQERVDKGIETDGSNLSGVSAKCAWDDLSRPPEDDEDSRSICIGTQPRRLSGKDTEQIRETLRRGLEINSKPVLPPINPQRQNGLAHDRAPSRKDSLESDSSTAIIPHELIRTRQLESVHLKFNQESGALIPLCLRGRLLHGRHFTYKSITGDMAITFVSTGVEGAFATEEHPYAAHGPWLQILLTEEFVEKMLEDLEDLTSPEEFKLPKEYSWPEKKLKVSILPDVVFDSPLH

In the first test the parent is B1. Put plainly: GST-SUFU pull-down binding assay with 35S-radiolabeled in vitro-translated GLI1. The following applies: 10 nM GST-SUFU, parent: 55, read off a plot.
In the case of chain 1 MFNSMTPPPISSYGEPCCLRPLPSQGAPSVGTEGLSGPPFCHQANLMSGPHSYGPARETNSCTEGPLFSSPRSAVKLTKKRALSISPLSDASLDLQTVIRTSPSSLVAFINSRCTSPGGSYGHLSIGTMEPSLGFPAQMNHQKGPSPSFGVQPCGPHDSARGGMIPHPQSRGPFPTCQLKSELDMLVGKCREEPLEGDMSSPNSTGIQDPLLGMLDGREDLEREEKREPESV [chain 1 S130E], the response came to 33 % GLI1 Bound.

Still in this test, the particulars now being: 20 nM GST-SUFU, parent: 67, read off a plot.
Regarding chain 1 MFNSMTPPPISSYGEPCCLRPLPSQGAPSVGTEGLSGPPFCHQANLMSGPHSYGPARETNSCTEGPLFSSPRSAVKLTKKRALSISPLSDASLDLQTVIRTSPSSLVAFINSRCTSPGGSYGHLSIGTMEPSLGFPAQMNHQKGPSPSFGVQPCGPHDSARGGMIPHPQSRGPFPTCQLKSELDMLVGKCREEPLEGDMSSPNSTGIQDPLLGMLDGREDLEREEKREPESV [chain 1 S130E], the response stood at 52 % GLI1 Bound.

The same test, now with this note: 40 nM GST-SUFU, parent: 80, read off a plot.
As to chain 1 MFNSMTPPPISSYGEPCCLRPLPSQGAPSVGTEGLSGPPFCHQANLMSGPHSYGPARETNSCTEGPLFSSPRSAVKLTKKRALSISPLSDASLDLQTVIRTSPSSLVAFINSRCTSPGGSYGHLSIGTMEPSLGFPAQMNHQKGPSPSFGVQPCGPHDSARGGMIPHPQSRGPFPTCQLKSELDMLVGKCREEPLEGDMSSPNSTGIQDPLLGMLDGREDLEREEKREPESV [chain 1 S130E], the response came out at 61 % GLI1 Bound.

The same test, now with this note: 80 nM GST-SUFU, parent: 95, read off a plot.
As to chain 1 MFNSMTPPPISSYGEPCCLRPLPSQGAPSVGTEGLSGPPFCHQANLMSGPHSYGPARETNSCTEGPLFSSPRSAVKLTKKRALSISPLSDASLDLQTVIRTSPSSLVAFINSRCTSPGGSYGHLSIGTMEPSLGFPAQMNHQKGPSPSFGVQPCGPHDSARGGMIPHPQSRGPFPTCQLKSELDMLVGKCREEPLEGDMSSPNSTGIQDPLLGMLDGREDLEREEKREPESV [chain 1 S130E], the response was found to be 72 % GLI1 Bound.
